Experimental data as given in publication PMC6642083, “Structural basis of tubulin detyrosination by VASH2/SVBP heterodimer” (Nature Communications, 2019).

Target: T1, VASH2_(1–355)(C158A)/SVBP_(1–66) (Mus musculus, UniProt Q8C5G2 1-355; Q99LQ4 1-66, C158A)
T1 construct: SVBP, Mus musculus, residues 1-66; also called VASH2(C158A)/SVBP; source: Sf9, co-expressed (baculovirus), purified (Ni-NTA, heparin, SEC); not shown: His-tag, N-terminal, cleaved
Assay: crystal structure; tail peptide (1 mM) co-crystallized with VASH2 1–355(C158A)/SVBP 1–66 (5 mg/ml), 2.5 Å; 0.1 M HEPES pH 7.0, 1 M (NH4)2SO4, 1.105 M KCl, 18 °C
Settings: both partners purified

T1 sequence (Q8C5G2 whole entry C158A, chain 1 of 2, the tested form may be a part): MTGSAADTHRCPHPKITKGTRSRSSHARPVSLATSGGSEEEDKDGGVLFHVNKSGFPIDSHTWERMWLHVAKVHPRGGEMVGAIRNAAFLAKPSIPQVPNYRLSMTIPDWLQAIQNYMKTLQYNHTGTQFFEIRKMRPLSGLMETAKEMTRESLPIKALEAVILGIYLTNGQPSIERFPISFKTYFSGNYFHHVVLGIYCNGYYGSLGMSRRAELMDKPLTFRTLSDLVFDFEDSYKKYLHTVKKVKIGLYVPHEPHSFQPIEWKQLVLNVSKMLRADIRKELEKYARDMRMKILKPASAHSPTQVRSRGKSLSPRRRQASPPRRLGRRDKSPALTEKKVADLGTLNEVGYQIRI
T1 sequence (Q99LQ4 whole entry, chain 2 of 2, the tested form may be a part): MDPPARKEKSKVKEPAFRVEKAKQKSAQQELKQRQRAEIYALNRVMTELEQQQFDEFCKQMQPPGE

B1: α-tubulin C-terminal tail peptide (VDSVEGEGEEEGEEY) (peptide)
peptide: VDSVEGEGEEEGEEY
notes: C-terminal tail of α-tubulin; Only the last five residues (EGEEY) were built in the crystal structure; also called tubulin tail; full-length tail; source: synthetic peptide (Biosynthesis)
- binding result: binds
